# Data reported in patent publication US20240376224A1 (University of California, published 2024).
# T1: cleaved human CDCP1 on the cell surface (endogenous, PDAC cells) (human) (UniProt Q9H5V8)
# T1 sequence 1: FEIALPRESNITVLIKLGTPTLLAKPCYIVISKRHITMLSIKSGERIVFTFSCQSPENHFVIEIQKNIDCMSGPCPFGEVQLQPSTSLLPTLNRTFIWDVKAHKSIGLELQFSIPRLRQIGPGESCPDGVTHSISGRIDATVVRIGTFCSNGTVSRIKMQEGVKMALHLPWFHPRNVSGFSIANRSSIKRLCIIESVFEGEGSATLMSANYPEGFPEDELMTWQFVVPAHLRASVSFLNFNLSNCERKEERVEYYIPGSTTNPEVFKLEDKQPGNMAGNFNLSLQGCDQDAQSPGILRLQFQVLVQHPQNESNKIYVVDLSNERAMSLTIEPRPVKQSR
# T1 sequence 2: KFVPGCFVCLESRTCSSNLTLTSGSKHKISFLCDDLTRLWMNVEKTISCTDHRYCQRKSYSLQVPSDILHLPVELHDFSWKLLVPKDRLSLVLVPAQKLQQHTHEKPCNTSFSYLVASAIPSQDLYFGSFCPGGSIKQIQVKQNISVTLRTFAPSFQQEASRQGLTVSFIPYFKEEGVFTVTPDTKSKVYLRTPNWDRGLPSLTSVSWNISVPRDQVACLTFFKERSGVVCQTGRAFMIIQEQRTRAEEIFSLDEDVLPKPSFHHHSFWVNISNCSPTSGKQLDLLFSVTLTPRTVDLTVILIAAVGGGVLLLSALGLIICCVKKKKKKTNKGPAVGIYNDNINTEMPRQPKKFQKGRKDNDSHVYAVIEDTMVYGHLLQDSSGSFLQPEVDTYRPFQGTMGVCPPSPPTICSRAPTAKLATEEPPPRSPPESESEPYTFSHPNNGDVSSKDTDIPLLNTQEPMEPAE
# T2: His-TEV-CUB1 (human, UniProt Q9H5V8 30-367)
# T2 construct: also called CUB1 (His-TEV-CUB1, soluble NTF); not shown: His tag and TEV site
# T2 sequence: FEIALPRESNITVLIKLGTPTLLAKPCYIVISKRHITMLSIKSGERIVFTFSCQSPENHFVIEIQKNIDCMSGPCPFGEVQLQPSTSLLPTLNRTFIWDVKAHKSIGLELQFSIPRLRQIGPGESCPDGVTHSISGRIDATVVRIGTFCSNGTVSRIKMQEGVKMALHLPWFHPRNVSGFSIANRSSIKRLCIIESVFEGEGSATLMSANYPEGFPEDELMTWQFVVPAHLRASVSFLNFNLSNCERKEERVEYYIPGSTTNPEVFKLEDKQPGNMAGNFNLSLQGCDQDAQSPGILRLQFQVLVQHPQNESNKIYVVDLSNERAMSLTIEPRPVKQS
# T3: His-CUB1 (human, UniProt Q9H5V8 30-367, limits assumed)
# T3 construct: also called CUB1 (His-CUB1, soluble NTF); not shown: His tag
# T3 sequence: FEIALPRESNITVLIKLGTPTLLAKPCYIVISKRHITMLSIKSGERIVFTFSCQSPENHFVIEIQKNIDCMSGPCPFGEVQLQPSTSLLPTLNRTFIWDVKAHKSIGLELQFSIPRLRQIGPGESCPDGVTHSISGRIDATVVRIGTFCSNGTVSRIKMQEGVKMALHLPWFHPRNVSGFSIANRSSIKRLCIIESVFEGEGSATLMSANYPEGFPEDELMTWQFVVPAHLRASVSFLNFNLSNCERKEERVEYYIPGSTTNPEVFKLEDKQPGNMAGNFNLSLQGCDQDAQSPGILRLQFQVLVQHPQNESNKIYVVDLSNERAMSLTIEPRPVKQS
# T4: soluble CUB1 (NTF) used as competitor (human, UniProt Q9H5V8 30-367, limits assumed)
# T4 sequence: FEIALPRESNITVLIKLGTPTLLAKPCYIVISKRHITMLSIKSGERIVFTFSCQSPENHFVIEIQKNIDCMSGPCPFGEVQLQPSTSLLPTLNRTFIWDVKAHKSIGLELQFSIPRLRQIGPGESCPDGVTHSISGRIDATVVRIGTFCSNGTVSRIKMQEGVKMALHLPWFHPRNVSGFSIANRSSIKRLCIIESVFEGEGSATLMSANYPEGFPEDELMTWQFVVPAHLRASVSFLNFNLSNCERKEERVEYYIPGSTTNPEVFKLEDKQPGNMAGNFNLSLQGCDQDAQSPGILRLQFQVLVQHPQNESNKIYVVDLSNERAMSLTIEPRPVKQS
# B1: CL03 IgG (antibody, V domains shown)
# VH: EVQLVESGGGLVQPGGSLRLSCAASGFNFSSYSIHWVRQAPGKGLEWVASIYPYSGSTYYADSVKGRFTISADTSKNTAYLQMNSLRAEDTAVYYCARQSHSYYSHTWWVSYGMDYWGQGTLVTVSS
# VL: DIQMTQSPSSLSASVGDRVTITCRASQSVSSAVAWYQQKPGKAPKLLIYSASSLYSGVPSRFSGSRSGTDFTLTISSLQPEDFATYYCQQSGQRPITFGQGTKVEIKR
# notes: also called IgG CL03
# Legend:
# [1] = target: c-CDCP1; test: BLI (Octet RED384)
# [2] = target: T1, cleaved human CDCP1 on the cell surface (endogenous, PDAC cells) (human); test: dose-response flow cytometry on PL5 cells; PL5 cells
# [3] = target: T1, cleaved human CDCP1 on the cell surface (endogenous, PDAC cells) (human); test: dose-response flow cytometry on PL45 cells; PL45 cells
# [4] = target: T2, His-TEV-CUB1; test: sandwich ELISA, CL03 as capture antibody, antigen titrated (ng/mL), anti-CDCP1 polyclonal antibody for detection
# Protocol: (§1) CUB1 N-terminal fragment (NTF) is present only in human serum. Since CL03 binds to an epitope on CUB1 domain that is exposed upon proteolysis, CUB1 (NTF) would serve as a sink to CL03 that decreases the viable concentration of CL03 on tumor site if it binds to CUB1 only in human serum. To further investigate the binding mechanism of CL03, an ELISA experiment was performed in which the binding of CL03 to CUB1 in human serum was evaluated. ELISA assays were performed as generally described in Example 1. Briefly, either IgG CL03 or 4A06 was used as the capture antibody; the target antigens evaluated were as presented in Table 9 below; and an anti-CDCP1 polyclonal Ab was used as the detection antibody (R&D: Cat. #AF2666).
# [5] = target: T3, His-CUB1; test: as above
# Protocol: as §1
# [6] = target: T4, soluble CUB1 (NTF) used as competitor; test: flow cytometry competition: CUB1-His (NTF) titrated against 100, 50 or 0 nM IgG CL03 on cleaved CDCP1 positive cells
# Protocol: To further evaluate the recognition of cleaved CDCP1 on cancer cells by CL03, a competition assay was performed to evaluate whether soluble CUB1 (NTF) could compete with the binding of CL03 on cleaved CDCP1 positive cells. […] Primary Ab (CL03 IgG) and different concentrations of CUB1 (NTF) were added to cells for 30 minutes at 4° C. Bound Abs were detected with addition of AlexaFluor-488 conjugated Goat anti-human IgG, F(ab′)2 fragment specific (Jackson ImmunoResearch: 1:1000). Cells were washed 3× with PBS+3% BSA and fluorescence was quantified using a CytoFLEX (Beckman Coulter) flow cytometer. All flow cytometry data analysis was performed using FlowJo software and Prism software (GraphPad).
binder,measurement,setting,value
B1,Kd,[1],0.15 to 0.84 nM
same,EC50,[2],14.1 nM
same,EC50,[3],20.7 nM
same,binding result,[4],no binding (tested: 1000 ng/mL)
same,binding result,[5],no binding (tested: 1000 ng/mL)
same,binding result,[6],no binding (tested: about 800 nM)
